Experimental data as given in patent publication US6555734B2, “Genetic sequences encoding substrate-specific dihydroflavonol 4-reductase and uses therefor” (Korea Kumho Petrochemical Co., Ltd., priority 2000, dated 2003).
Residue numbers refer to the chain shown, from its start. Numbers in names are those of the source. Entries after “also recorded” stand apart in the source; their conditions may differ.

B1: maize DFR: maize DFR introduced into a Petunia mutant line (Meyer et al.) (protein, UniProt P51108 1-357, looked up)
Dihydroflavonol 4-reductase: MERGAGASEKGTVLVTGASGFVGSWLVMKLLQAGYTVRATVRDPANVGKTKPLMDLPGATERLSIWKADLAEEGSFHDAIRGCTGVFHVATPMDFLSKDPENEVIKPTVEGMISIMRACKEAGTVRRIVFTSSAGTVNLEERQRPVYDEESWTDVDFCRRVKMTGWMYFVSKTLAEKAALAYAAEHGLDLVTIIPTLVVGPFISASMPPSLITALALITGNAPHYSILKQVQLIHLDDLCDAEIFLFENPAAAGRYVCSSHDVTIHGLAAMLRDRYPEYDVPQRFPGIQDDLQPVRFSSKKLQDLGFTFRYKTLEDMFDAAIRTCQEKGLIPLATAAGGDGFASVRAPGETEATIGA
B2: Gerbera DFR: wild type Gerbera dihydroflavonol 4-reductase (SEQ ID NO: 2) (protein)
chain: MEEDSPATVCVTGAAGFIGSWLVMRLLERGYVVHATVRDPGDLKKVKHLLELPKAQTNLKLWKADLTQEGSFDEAIQGCHGVFHLATPMDFESKDPENEIIKPTIEGVLSIIRSCVKAKTVKKLVFTSSAGTVNGQEKQLHVYDESHWSDLDFIYSKKMTAWMYFVSKTLAEKAAWDATKGNNISFISIIPTLVVGPFITSTFPPSLVTALSLITGNEAHYSIIKQGQYVHLDDLCECHIYLYENPKAKGRYICSSHDATIHQLAKIIKDKWPEYYIPTKFPGIDEELPIVSFSSKKLIDTGFEFKYNLEDMFKGAIDTCREKGLLPYSTIKNHINGNHVNGVHHYIKNNDDDHEKGLLCCSKEGQ
B3: N134L: DFR that has leucine instead of aspargine at the 134th position of Gerbera DFR (SEQ ID NO 4) (protein)
chain: B2 chain with N134L

What was measured:
[1] = from literature; cited from earlier work
[2] = test system: white flowered Petunia mutant (W80); format: in vivo; conditions: W80 line (lacks DFR activity, accumulates primarily DHK); DFR gene under 35S CaMV promoter
[3] = test system: WR Petunia line (dfr^−/−, F3′H^+/+); assay: TLC analysis of pigments in WR crossed lines; format: in vivo
Excerpt: (§1) In accordance with the present invention, a DHK-specific DFR was developed by replacing asparagine at 134th amino acid residue of Gerbera DFR to leucine. […] Since the W80 Petunia line we transformed accumulates mainly DHK with small amount of DHQ and DHM, it was not clear if the N134L mutant DFR completely lost the capability of reducing DHQ and DHM. To investigate if the N134L mutant DFR produces only pelargonidin in the presence of fully active flavonoid-3′-hydroxylase (F3′H) or flavonoid-3′,5′-hydroxylase (F3′5′H), we crossed our N134L transformant with Petunia lines that are either dfr^−/−/F3′H^+/+ (WR line) or dfr^−/−/F3′5′H^+/+ (WV line). […] To determine the pigments produced in these crossed lines, we performed TLC analysis.
(§2) Gerbera DFR genes containing one amino acid point mutation were made in a similar manner as the chimeric genes. The 5′ region was synthesized using a primer having the Gerbera DFR starting methionine and a primer containing a single codon change. The 3′ region was made with a complementary primer with the single codon change and a primer having the stop codon of Gerbera DFR. The full length mutant sequence was assembled like the chimeric genes above. Each point mutant was cloned into a vector having the 35S CaMV promoter and NOS terminator. The mutagenized region of each mutant DFR was sequenced to ensure the correct residue was changed. Point mutants were then transformed into the W80 Petunia line. The transformants expressing the DFR genes were crossed with WR Petunia line (dfr^−/−, F3′H^+/+) and WV Petunia line (dfr^−/−, F3′5′H^+/+) to determine the substrate specificity of the mutated DFR. Mutations in other loci were not determined in these two Petunia lines.
(§3) Anthocyanidins were separated on cellulose TLC plates as described (Johnson, et al. Plant J. 19:81-85 (1999)). Corollas were sometimes stored at 4° C. for extended periods of time in methanol-0.5% HCl solution. Before adding iso-amylalcohol, the flower extracts were quantified at 530 nm to ensure uniform loading on the TLC plate. […]

[4] = test system: WR Petunia line (dfr^−/−, F3′H^+/+); assay: Flower colour of WR Petunia line crossed with DFR transformants; format: in vivo
Excerpt: as §1
(§4) Gerbera DFR genes containing one amino acid point mutation were made in a similar manner as the chimeric genes. The 5′ region was synthesized using a primer having the Gerbera DFR starting methionine and a primer containing a single codon change. The 3′ region was made with a complementary primer with the single codon change and a primer having the stop codon of Gerbera DFR. The full length mutant sequence was assembled like the chimeric genes above. Each point mutant was cloned into a vector having the 35S CaMV promoter and NOS terminator. […] Mutations in other loci were not determined in these two Petunia lines.

[5] = test system: WV Petunia line (dfr^−/−, F3′5′H^+/+); assay: TLC analysis of pigments in WV crossed lines; format: in vivo
Excerpt: as §1, §2, §3

[6] = test system: WV Petunia line (dfr^−/−, F3′5′H^+/+); assay: Flower colour of WV Petunia line crossed with DFR transformants; format: in vivo
Excerpt: as §1, §4

[7] = test system: white flowered Petunia mutant (W80); assay: TLC analysis of anthocyanidins produced in transgenic W80 Petunia flowers; format: in vivo; conditions: W80 line, anthocyanidins on cellulose TLC against pelargonidin, cyanidin, delphinidin standards
Excerpt: In accordance with the present invention, the substrate specificity determining region was identified by determining the abilities of three chimeric DFRs to catalyze the reduction of DHK in the transgenic Petunia lines. In order to identify the region of DFR that determines its substrate specificity, we constructed chimeric DFR genes using cDNA sequences of Petunia (SEQ ID NO: 35) and Gerbera (SEQ ID NO; 1). […] We built three different chimeric genes using regions of high homology as common PCR primer sites (FIG. 1A). The chimeric genes were transformed into a white flowered Petunia mutant (W80) that lacks DFR activity and accumulates primarily DHK but with appreciable amounts of dihydroquercetin (DHQ) and dihydromyricetin (DHM) (Huits et at, 1994). […] The hue of Chimera 1 flowers is very similar to the inbred Petunia mutant RLO1, which has functional DFR activity and accumulates DHK. […] The identified region (approx. 40 amino acids) is highly variable in DFRs from different plant species. By excluding the completely conserved amino acid sequences at the borders, the identified region is narrowed down to 26 amino acids. Hereinafter, this region is referred as substrate specificity determining region.
Anthocyanidins were separated on cellulose TLC plates as described (Johnson, et al. Plant J. 19:81-85 (1999)). Corollas were sometimes stored at 4° C. for extended periods of time in methanol-0.5% HCl solution. Before adding iso-amylalcohol, the flower extracts were quantified at 530 nm to ensure uniform loading on the TLC plate. Anthocyanin standards were purchased from Apin Chemicals Ltd. (Oxfordshire, England).

[8] = Substrate specificity of DFR (reduction of dihydroflavonols); conditions: concluded from flower colour and TLC data of WR and WV crosses
Excerpt: as §1, §4

Molecule | substrate use among DHK, DHQ and DHM [1] | flower color of transgenic Petunia [2] | pigments accumulated in crossed line (TLC) ([3]; listed as DFR^WT) | pigments accumulated in crossed line (TLC) ([3]; listed as wild type DFR) | flower color of crossed line [4] | pigments accumulated in crossed line (TLC) ([5]; listed as DFR^WT) | pigments accumulated in crossed line (TLC) ([5]; listed as wild type DFR) | flower color of crossed line [6] | pigments produced in transgenic Petunia flowers (TLC) ([7]; listed as native Gerbera DFR) | pigments produced in transgenic Petunia flowers (TLC) ([7]; listed as wild type Gebera DFR) | pigments accumulated in crossed line (TLC) ([3]; listed as DFR^N134L) | pigments accumulated in crossed line (TLC) ([5]; listed as DFR^N134L) | substrate preference among DHK, DHQ and DHM [8] | pigments produced in transgenic Petunia flowers (TLC) [7] | pigments produced in transgenic Petunia flowers (TLC) ([7]; listed as DHK-specific DFR)
B1 | can convert all three dihydroflavonols to their leucocyanidins |  |  |  |  |  |  |  |  |  |  |  |  |  | 
B2 | able to catalyze dihydrokaempferol (DHK) | orange/bric-red color | mainly accumulated cyanidin | cyanidin | red colored flowers | accumulated mainly delphinidin | delphinidin | violet colored flowers | production of appreciable amounts of cyanidin and delphinidin in addition to pelargonidin | accumulated significant amount of cyanidin and delphinidin in addition to perlargonidin |  |  |  |  | 
B3 |  | slightly different colored flowers |  |  | orange colored flowers |  |  | white flowers |  |  | accumulated pelargonidin and cyanidin; also recorded: accumulated a large amount of pelargonidin | did not accumulated any pigment other than background level of delphinidin; also recorded: no appreciable amounts of anthocyanidins accumulated other than a background level of delphinidin | preferentially utilizes DHK as a substrate over DHQ and cannot reduce DHM | accumulated mostly pelargonidin | production of only pelargonidin
